Source: the Immune Epitope Database (IEDB)
One block for each sequence: values may come before it.

Tests used:
[1] = target: HLA-B*51:01; assay: IEDB peptide-MHC binding, purified MHC/competitive/fluorescence; ≥ and ≤ were set here for values at or beyond the usual limits of such assays; settings: source organism: Mus musculus
[2] = target: HLA-A*11:01; assay: as above; settings: source organism: Mus musculus
[3] = target: HLA-A*68:02; assay: as above; settings: source organism: Mus musculus
[4] = target: HLA-A*02:01; assay: as above; settings: source organism: Mus musculus
[5] = target: HLA-B*18:01; assay: as above; settings: source organism: Mus musculus
[6] = target: HLA-B*08:01; assay: as above; settings: source organism: Mus musculus
[7] = target: HLA-B*44:03; assay: as above; settings: source organism: Mus musculus
[8] = target: HLA-A*31:01; assay: as above; settings: source organism: Mus musculus
[9] = target: HLA-A*25:01; assay: as above; settings: source organism: Mus musculus
[10] = target: HLA-B*37:01; assay: as above; settings: source organism: Mus musculus
[11] = target: HLA-A*03:01; assay: as above; settings: source organism: Mus musculus
[12] = target: HLA-B*53:01; assay: as above; settings: source organism: Mus musculus
[13] = target: HLA-A*01:01; assay: as above; settings: source organism: Mus musculus
[14] = target: HLA-B*14:02; assay: as above; settings: source organism: Mus musculus
[15] = target: HLA-A*29:02; assay: as above; settings: source organism: Mus musculus
[16] = target: HLA-B*58:01; assay: as above; settings: source organism: Mus musculus
[17] = target: HLA-B*35:01; assay: as above; settings: source organism: Mus musculus
[18] = target: HLA-A*24:02; assay: as above; settings: source organism: Mus musculus
[19] = target: HLA-B*07:02; assay: as above; settings: source organism: Mus musculus
[20] = target: HLA-B*40:02; assay: as above; settings: source organism: Mus musculus
[21] = target: HLA-A*02:01; assay: IEDB peptide-MHC binding, purified MHC/competitive/radioactivity; filed as Kd, often an IC50 or EC50 that approximates it; ≥ and ≤ were set here for values at or beyond the usual limits of such assays; settings: source organism: Homo sapiens
[22] = target: HLA-A*02:07; assay: as above; settings: source organism: Homo sapiens
[23] = target: HLA-B*57:01; assay: as above; settings: source organism: Homo sapiens
[24] = target: HLA-A*29:02; assay: as above; settings: source organism: Homo sapiens
[25] = target: HLA-B*58:01; assay: as above; settings: source organism: Homo sapiens
[26] = target: HLA-B*15:02; assay: IEDB peptide-MHC binding, purified MHC/competitive/fluorescence; filed as Kd, often an IC50 or EC50 that approximates it; ≥ and ≤ were set here for values at or beyond the usual limits of such assays; settings: source organism: Homo sapiens
[27] = target: HLA-B*46:01; assay: as above; settings: source organism: Homo sapiens
[28] = target: HLA-A*02:03; assay: as above
[29] = target: HLA-A*02:12; assay: IEDB peptide-MHC binding, purified MHC/direct/fluorescence; filed as Kd, often an IC50 or EC50 that approximates it; ≥ and ≤ were set here for values at or beyond the usual limits of such assays; settings: source organism: Geobacillus sp. WCH70
[30] = target: HLA-A*02:01; assay: as above
[31] = target: HLA-A*02:06; assay: as above; settings: source organism: Geobacillus sp. WCH70
[32] = target: HLA-A*11:01; assay: IEDB peptide-MHC binding, purified MHC/competitive/fluorescence; filed as Kd, often an IC50 or EC50 that approximates it; ≥ and ≤ were set here for values at or beyond the usual limits of such assays; settings: source organism: Vaccinia virus Copenhagen
[33] = target: HLA-A*30:01; assay: as above; settings: source organism: Vaccinia virus Copenhagen
[34] = target: HLA-B*08:01; assay: as above; settings: source organism: Vaccinia virus Copenhagen
[35] = target: HLA-B*07:02; assay: as above; settings: source organism: Vaccinia virus Copenhagen
[36] = target: HLA-B*27:05; assay: IEDB peptide-MHC binding, purified MHC/direct/fluorescence; filed as Kd, often an IC50 or EC50 that approximates it; ≥ and ≤ were set here for values at or beyond the usual limits of such assays; settings: source organism: Camelpox virus M-96
[37] = target: HLA-A*68:02; assay: as above; settings: source organism: Camelpox virus M-96
[38] = target: HLA-B*08:03; assay: as above; settings: source organism: Variola virus
[39] = target: HLA-B*18:01; assay: as above; settings: source organism: Camelpox virus M-96
[40] = target: HLA-B*15:17; assay: as above; settings: source organism: Camelpox virus M-96
[41] = target: HLA-A*26:03; assay: as above; settings: source organism: Variola virus
[42] = target: HLA-B*48:01; assay: as above; settings: source organism: Camelpox virus M-96
[43] = target: HLA-B*57:01; assay: as above; settings: source organism: Camelpox virus M-96
[44] = target: HLA-A*69:01; assay: as above; settings: source organism: Camelpox virus M-96
[45] = target: HLA-B*15:01; assay: as above; settings: source organism: Camelpox virus M-96
[46] = target: HLA-A*01:01; assay: as above; settings: source organism: Camelpox virus M-96
[47] = target: HLA-B*58:01; assay: as above; settings: source organism: Camelpox virus M-96

- IC50 [1]: ≥ 20 µM
- IC50 [2]: ≥ 20 µM
- IC50 [3]: ≥ 20 µM
- IC50 [4]: ≥ 20 µM
- IC50 [5]: ≥ 20 µM
- IC50 [6]: ≥ 20 µM
- IC50 [7]: ≥ 20 µM
- IC50 [8]: ≥ 20 µM
- IC50 [9]: ≥ 20 µM
- IC50 [10]: ≥ 20 µM
- IC50 [11]: ≥ 20 µM
- IC50 [12]: ≥ 20 µM
- IC50 [13]: ≥ 20 µM
- IC50 [14]: ≥ 20 µM
- IC50 [15]: 0.0381 µM
- IC50 [16]: ≥ 20 µM
- IC50 [17]: 0.0138 µM
- IC50 [18]: ≥ 20 µM
- IC50 [19]: ≥ 20 µM
- IC50 [20]: ≥ 20 µM
Sequence: VALFSSCPVAY

- Kd [21]: ≥ 78.1 µM
- Kd [22]: ≥ 77.7 µM
- Kd [23]: 0.106 µM
- Kd [24]: 0.0441 µM
- Kd [25]: 0.084 µM
- Kd [26]: 0.00255 µM
- Kd [27]: 0.0131 µM
Sequence: FAFVTDNTY

Sequence: GLPESTPSL
- Kd ([28]; source organism: Bacillus anthracis str. A0488): 0.0214 µM
- Kd [29]: 0.12 µM
- Kd ([30]; source organism: Bacillus cereus): 0.0121 µM
- Kd [31]: 0.014 µM

Sequence: NRLKPRDFK
- Kd [32]: ≥ 20 µM
- Kd ([28]; source organism: Vaccinia virus Copenhagen): ≥ 20 µM
- Kd [33]: ≥ 20 µM
- Kd [34]: 3 µM
- Kd [35]: 3 µM
- Kd [36]: 1.79 µM
- Kd [37]: ≥ 20 µM
- Kd [38]: ≥ 20 µM
- Kd ([30]; source organism: Camelpox virus M-96): ≥ 20 µM
- Kd [39]: ≥ 20 µM
- Kd [40]: ≥ 20 µM
- Kd [41]: ≥ 20 µM
- Kd [42]: ≥ 20 µM
- Kd [43]: ≥ 20 µM
- Kd [44]: ≥ 20 µM
- Kd [45]: ≥ 20 µM
- Kd [46]: ≥ 20 µM
- Kd [47]: ≥ 20 µM
